According to the supplement of paper PMC11246515:
± gives the standard deviation of the averaged measurements.

Experiment: total protein half-life in vivo (active degradation + dilution); higher = more stable protein
[1] = E. coli NCM3722 delta-clpP delta-lon delta-hslV, growth: N-lim chemostat, doubling time 6 h
[2] = E. coli NCM3722 delta-clpP, growth: N-lim chemostat, doubling time 6 h
[3] = E. coli NCM3722 delta-hslV, growth: N-lim chemostat, doubling time 6 h
[4] = E. coli NCM3722 delta-lon, growth: N-lim chemostat, doubling time 6 h
[5] = E. coli NCM3722 delta-smpB, growth: N-lim chemostat, doubling time 6 h
[6] = wild type E. coli NCM3722, growth: C-lim chemostat, doubling time 3 h
[7] = wild type E. coli NCM3722, growth: C-lim chemostat, doubling time 6 h
[8] = wild type E. coli NCM3722, growth: C-lim chemostat, doubling time 12 h
[9] = wild type E. coli NCM3722, growth: N-lim chemostat, doubling time 6 h
[10] = wild type E. coli NCM3722, growth: N-lim chemostat, doubling time 12 h
[11] = wild type E. coli NCM3722, growth: P-lim chemostat, doubling time 6 h
[12] = wild type E. coli NCM3722, growth: P-lim chemostat, doubling time 12 h

Sequence	total protein half-life in vivo [1]	total protein half-life in vivo [2]	total protein half-life in vivo [3]	total protein half-life in vivo [4]	total protein half-life in vivo [5]	total protein half-life in vivo [6]	total protein half-life in vivo [7]	total protein half-life in vivo [8]	total protein half-life in vivo [9]	total protein half-life in vivo [10]	total protein half-life in vivo [11]	total protein half-life in vivo [12]
MEALLQLKGIDKAFPGVKALSGAALNVYPGRVMALVGENGAGKSTMMKVLTGIYTRDAGTLLWLGKETTFTGPKSSQEAGIGIIHQELNLIPQLTIAENIFLGREFVNRFGKIDWKTMYAEADKLLAKLNLRFKSDKLVGDLSIGDQQMVEIAKVLSFESKVIIMDEPTDALTDTETESLFRVIRELKSQGRGIVYISHRMKEIFEICDDVTVFRDGQFIAEREVASLTEDSLIEMMVGRKLEDQYPHLDKAPGDIRLKVDNLCGPGVNDVSFTLRKGEILGVSGLMGAGRTELMKVLYGALPRTSGYVTLDGHEVVTRSPQDGLANGIVYISEDRKRDGLVLGMSVKENMSLTALRYFSRAGGSLKHADEQQAVSDFIRLFNVKTPSMEQAIGLLSGGNQQKVAIARGLMTRPKVLILDEPTRGVDVGAKKEIYQLINQFKADGLSIILVSSEMPEVLGMSDRIIVMHEGHLSGEFTREQATQEVLMAAAVGKLNRVNQE	6.58 ± 1.1 h	5.992 ± 0.012 h	6.14 ± 0.13 h	5.71 ± 0.28 h	5.878 ± 0.015 h	3.11 ± 0.17 h	6.04 ± 0.086 h	11.3 ± 2.2 h	5.96 ± 0.35 h	12.7 ± 0.54 h	6.499 ± 0.06 h	12.2 ± 0.6 h
MEFTTGLMSLDTALNEMLSRVTPLTAQETLPLVQCFGRILASDVVSPLDVPGFDNSAMDGYAVRLADIASGQPLPVAGKSFAGQPYHGEWPAGTCIRIMTGAPVPEGCEAVVMQEQTEQMDNGVRFTAEVRSGQNIRRRGEDISAGAVVFPAGTRLTTAELPVIASLGIAEVPVIRKVRVALFSTGDELQLPGQPLGDGQIYDTNRLAVHLMLEQLGCEVINLGIIRDDPHALRAAFIEADSQADVVISSGGVSVGEADYTKTILEELGEIAFWKLAIKPGKPFAFGKLSNSWFCGLPGNPVSATLTFYQLVQPLLAKLSGNTASGLPARQRVRTASRLKKTPGRLDFQRGVLQRNADGELEVTTTGHQGSHIFSSFSLGNCFIVLERDRGNVEVGEWVEVEPFNALFGGL	–	–	4.41 ± 0.22 h	4.63 ± 0.21 h	4.88 ± 0.29 h	2.741 ± 0.013 h	4.96 ± 0.85 h	11.1 ± 0.4 h	4.07 ± 0.22 h	7.4293 ± 0.003 h	5.64 ± 0.34 h	11.1 ± 1.6 h
MEGSDFLLAGVLFLFAAVAAVPLASRLGIGAVLGYLLAGIAIGPWGLGFISDVDEILHFSELGVVFLMFIIGLELNPSKLWQLRRSIFGVGAAQVLLSAALLAGLLMLTDFAWQAAVVGGIGLAMSSTAMALQLMREKGMNRSESGQLGFSVLLFQDLAVIPALALVPLLAGSADEHFDWMKVGMKVLAFVGMLIGGRYLLRPVFRFIAASGVREVFTAATLLLVLGSALFMDALGLSMALGTFIAGVLLAESEYRHELETAIDPFKGLLLGLFFISVGMSLNLGVLYTHLLWVVISVVVLVAVKILVLYLLARLYGVRSSERMQFAGVLSQGGEFAFVLFSTASSQRLFQGDQMALLLVTVTLSMMTTPLLMKLVDKWLSRQFNGPEEEDEKPWVNDDKPQVIVVGFGRFGQVIGRLLMANKMRITVLERDISAVNLMRKYGYKVYYGDATQVDLLRSAGAEAAESIVITCNEPEDTMKLVEICQQHFPHLHILARARGRVEAHELLQAGVTQFSRETFSSALELGRKTLVTLGMHPHQAQRAQLHFRRLDMRMLRELIPMHADTVQISRAREARRELEEIFQREMQQERRQLDGWDEFE	7.22 ± 0.56 h	–	–	6.81 ± 1.1 h	6.39 ± 1.5 h	–	5.87 ± 0.17 h	–	5.996 ± 0.021 h	13.6 ± 2 h	7.09 ± 1.1 h	–
MEIIMRNLCFLLTLVATLLLPGRLIAAALPQDEKLITGQLDNGLRYMIYPHAHPKDQVNLWLQIHTGSLQEEDNELGVAHFVEHMMFNGTKTWPGNKVIETFESMGLRFGRDVNAYTSYDETVYQVSLPTTQKQNLQQVMAIFSEWSNAATFEKLEVDAERGVITEEWRAHQDAKWRTSQARRPFLLANTRNLDREPIGLMDTVATVTPAQLRQFYQRWYQPNNMTFIVVGDIDSKEALALIKDNLSKLPANKAAENRVWPTKAENHLRFNIINDKENRVNGIALYYRLPMVQVNDEQSFIEQAEWSMLVQLFNQRLQERIQSGELKTISGGTARSVKIAPDYQSLFFRVNARDDNMQDAANALMAELATIDQHGFSAEELDDVKSTRLTWLKNAVDQQAERDLRMLTSRLASSSLNNTPFLSPEETYQLSKRLWQQITVQSLAEKWQQLRKNQDAFWEQMVNNEVAAKKALSPAAILALEKEYANKKLAAYVFPGRNLSLTVDADPQAEISSKETLAENLTSLTLSNGARVILAKSAGEEQKLQIIAVSNKGDLSFPAQQKSLIALANKAVSGSGVGELSSSSLKRWSAENSVTMSSKVSGMNTLLSVSARTNNPEPGFQLINQRITHSTINDNIWASLQNAQIQALKTLDQRPAEKFAQQMYETRYADDRTKLLQENQIAQFTAADALAADRQLFSSPADITFVIVGNVAEDKLVALITRYLGSIKHSDSPLAAGKPLTRATDNASVTVKEQNEPVAQVSQWKRYDSRTPVNLPTRMALDAFNVALAKDLRVNIREQASGAYSVSSRLSVDPQAKDISHLLAFTCQPERHDELLTLANEVMVKRLAKGISEQELNEYQQNVQRSLDIQQRSVQQLANTIVNSLIQYDDPAAWTEQEQLLKQMTVENVNTAVKQYLSHPVNTYTGVLLPK	4.62 ± 0.69 h	5.77 ± 0.74 h	4.77 ± 1.3 h	5.5 h	4.55 ± 0.17 h	2.905 ± 0.0097 h	5.9 ± 0.39 h	10.2 ± 0.87 h	5.41 ± 0.45 h	9.96 ± 0.61 h	4.84 ± 0.2 h	9.3 ± 0.6 h
MEISWGRALWRNFLGQSPDWYKLALIIFLIVNPLIFLISPFVAGWLLVAEFIFTLAMALKCYPLLPGGLLAIEAVFIGMTSAEHVREEVAANLEVLLLLMFMVAGIYFMKQLLLFIFTRLLLSIRSKMLLSLSFCVAAAFLSAFLDALTVVAVVISVAVGFYGIYHRVASSRTEDTDLQDDSHIDKHYKVVLEQFRGFLRSLMMHAGVGTALGGVMTMVGEPQNLIIAKAAGWHFGDFFLRMSPVTVPVLICGLLTCLLVEKLRWFGYGETLPEKVREVLQQFDDQSRHQRTRQDKIRLIVQAIIGVWLVTALALHLAEVGLIGLSVIILATSLTGVTDEHAIGKAFTESLPFTALLTVFFSVVAVIIDQQLFSPIIQFVLQASEHAQLSLFYIFNGLLSSISDNVFVGTIYINEAKAAMESGAITLKQYELLAVAINTGTNLPSVATPNGQAAFLFLLTSALAPLIRLSYGRMVWMALPYTLVLTLVGLLCVEFTLAPVTEWFMQMGWIATL [P0AFA7]	–	–	6.59 ± 0.35 h	6.07 ± 0.93 h	6.4 ± 0.18 h	–	–	13.8 ± 0.64 h	5.91 ± 0.38 h	11.2 ± 4.7 h	6.58 ± 0.48 h	12.8 ± 0.14 h
MEIYENENDQVEAVKRFFAENGKALAVGVILGVGALIGWRYWNSHQVDSARSASLAYQNAVTAVSEGKPDSIPAAEKFAAENKNTYGALASLELAQQFVDKNELEKAAAQLQQGLADTSDENLKAVINLRLARVQVQLKQADAALKTLDTIKGEGWAAIVADLRGEALLSKGDKQGARSAWEAGVKSDVTPALSEMMQMKINNLSI	5.43 ± 0.11 h	5.4 ± 0.35 h	5.99 ± 0.76 h	6.64 ± 0.78 h	5.52 ± 0.16 h	2.83 ± 0.14 h	4.7 ± 0.38 h	10.3 ± 0.96 h	5.8 ± 0.6 h	11.9 ± 0.17 h	4.55 ± 0.6 h	8.84 ± 0.18 h
MEKAKQVTWRLLAAGVCLLTVSSVARADSLDEQRSRYAQIKQAWDNRQMDVVEQMMPGLKDYPLYPYLEYRQITDDLMNQPAVTVTNFVRANPTLPPARTLQSRFVNELARREDWRGLLAFSPEKPGTTEAQCNYYYAKWNTGQSEEAWQGAKELWLTGKSQPNACDKLFSVWRASGKQDPLAYLERIRLAMKAGNTGLVTVLAGQMPADYQTIASAIISLANNPNTVLTFARTTGATDFTRQMAAVAFASVARQDAENARLMIPSLAQAQQLNEDQIQELRDIVAWRLMGNDVTDEQAKWRDDAIMRSQSTSLIERRVRMALGTGDRRGLNTWLARLPMEAKEKDEWRYWQADLLLERGREAEAKEILHQLMQQRGFYPMVAAQRIGEEYELKIDKAPQNVDSALTQGPEMARVRELMYWNLDNTARSEWANLVKSKSKTEQAQLARYAFNNQWWDLSVQATIAGKLWDHLEERFPLAYNDLFKRYTSGKEIPQSYAMAIARQESAWNPKVKSPVGASGLMQIMPGTATHTVKMFSIPGYSSPGQLLDPETNINIGTSYLQYVYQQFGNNRIFSSAAYNAGPGRVRTWLGNSAGRIDAVAFVESIPFSETRGYVKNVLAYDAYYRYFMGDKPTLMSATEWGRRY [P0AGC3]	5.924 ± 0.022 h	6.7 ± 0.89 h	6.326 ± 0.06 h	6.53 ± 0.35 h	6.054 ± 0.043 h	3.16 ± 0.12 h	6.34 ± 0.25 h	12 ± 2.2 h	6.29 ± 0.41 h	12.2 ± 0.23 h	6.07 ± 0.19 h	12.3 ± 0.39 h
MEKENITIDPRSSFTPSSSADIPVPPDGLVQRSTRIKRIQTTAMLLLFFAAVINYLDRSSLSVANLTIREELGLSATEIGALLSVFSLAYGIAQLPCGPLLDRKGPRLMLGLGMFFWSLFQAMSGMVHNFTQFVLVRIGMGIGEAPMNPCGVKVINDWFNIKERGRPMGFFNAASTIGVAVSPPILAAMMLVMGWRGMFITIGVLGIFLAIGWYMLYRNREHVELTAVEQAYLNAGSVNARRDPLSFAEWRSLFRNRTMWGMMLGFSGINYTAWLYLAWLPGYLQTAYNLDLKSTGLMAAIPFLFGAAGMLVNGYVTDWLVKGGMAPIKSRKICIIAGMFCSAAFTLIVPQATTSMTAVLLIGMALFCIHFAGTSCWGLIHVAVASRMTASVGSIQNFASFICASFAPIITGFIVDTTHSFRLALIICGCVTAAGALAYIFLVRQPINDPRKD	–	–	–	–	–	–	–	5.28 h	–	–	–	–
MEKKIGFIGCGNMGKAILGGLIASGQVLPGQIWVYTPSPDKVAALHDQFGINAAESAQEVAQIADIIFAAVKPGIMIKVLSEITSSLNKDSLVVSIAAGVTLDQLARALGHDRKIIRAMPNTPALVNAGMTSVTPNALVTPEDTADVLNIFRCFGEAEVIAEPMIHPVVGVSGSSPAYVFMFIEAMADAAVLGGMPRAQAYKFAAQAVMGSAKMVLETGEHPGALKDMVCSPGGTTIEAVRVLEEKGFRAAVIEAMTKCMEKSEKLSKS [P0A9L8]	6.83 ± 1.6 h	5.45 ± 0.76 h	5.12 ± 0.073 h	5.68 ± 0.49 h	5.54 ± 0.52 h	3.01 ± 0.19 h	6.48 ± 1 h	10.6 ± 2.5 h	5.02 ± 0.91 h	9.31 ± 1 h	5.51 ± 0.83 h	11.8 ± 0.66 h
MEKNSLFSQRIRLRHLHTFVAVAQQGTLGRAAETLNLSQPALSKTLNELEQLTGARLFERGRQGAQLTLPGEQFLTHAVRVLDAINTAGRSLHRKEGLNNDVVRVGALPTAALGILPSVIGQFHQQQKETTLQVATMSNPMILAGLKTGEIDIGIGRMSDPELMTGLNYELLFLESLKLVVRPNHPLLQENVTLSRVLEWPVVVSPEGTAPRQHSDALVQSQGCKIPSGCIETLSASLSRQLTVEYDYVWFVPSGAVKDDLRHATLVALPVPGHGAGEPIGILTRVDATFSSGCQLMINAIRKSMPF	5.7 ± 0.088 h	2.66 ± 1.2 h	2.014 ± 0.017 h	4.21 ± 0.12 h	1.61 ± 0.065 h	1.77 ± 0.26 h	3.159 ± 0.0044 h	4.49 ± 0.46 h	2.01 ± 0.12 h	2.5 ± 0.039 h	2.67 ± 0.7 h	3.86 ± 0.13 h
MEKTTTQELLAQAEKICAQRNVRLTPQRLEVLRLMSLQDGAISAYDLLDLLREAEPQAKPPTVYRALDFLLEQGFVHKVESTNSYVLCHLFDQPTHTSAMFICDRCGAVKEECAEGVEDIMHTLAAKMGFALRHNVIEAHGLCAACVEVEACRHPEQCQHDHSVQVKKKPR [P0AC51]	5.27 ± 0.88 h	5.4504 ± 0.0027 h	5.09 h	5.63 ± 0.19 h	4.2 ± 0.9 h	–	3.79 h	9 ± 1.9 h	5.15 h	6.28 h	3.86 ± 0.18 h	8.62 ± 0.42 h
